This is an account of results in publication PMC12522135 (2025).

The target of assay [1] is human serum albumin (human, UniProt P02768 25-609). Briefly: ELISA. (In general: An ELISA detects its analyte on a solid surface through an enzyme-linked reagent.)
Assay [2] deals with mouse serum albumin (mouse, UniProt P07724 25-608). Kind of assay: ELISA.
mouse serum albumin, sequence (P07724 25-608): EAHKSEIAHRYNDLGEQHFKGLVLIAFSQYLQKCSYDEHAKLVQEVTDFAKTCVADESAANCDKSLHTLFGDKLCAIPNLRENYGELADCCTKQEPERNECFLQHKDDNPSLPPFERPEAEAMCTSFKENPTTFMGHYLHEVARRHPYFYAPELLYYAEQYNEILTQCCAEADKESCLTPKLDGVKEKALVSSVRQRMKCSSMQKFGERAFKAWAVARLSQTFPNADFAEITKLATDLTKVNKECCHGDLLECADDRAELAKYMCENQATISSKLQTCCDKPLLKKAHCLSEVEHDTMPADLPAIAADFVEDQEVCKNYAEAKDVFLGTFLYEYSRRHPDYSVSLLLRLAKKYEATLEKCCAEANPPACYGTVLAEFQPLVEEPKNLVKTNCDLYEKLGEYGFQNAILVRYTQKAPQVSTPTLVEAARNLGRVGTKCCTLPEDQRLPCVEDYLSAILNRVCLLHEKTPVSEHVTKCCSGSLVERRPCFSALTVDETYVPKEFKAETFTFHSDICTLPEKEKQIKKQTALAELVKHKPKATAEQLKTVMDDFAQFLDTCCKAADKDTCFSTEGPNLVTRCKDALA

B1: HEX-D3-ASA (designed binder)
chain: DLGKKLLEAARAGQDDEVRELLKAGADVNAKDYFSHTPLHLAARNGHLKIVEVLLKAGADVNAKDFAGKTPLHLAANEGHLEIVEVLLKAGADVNAQDIFGKTPADIAADAGHEDIAEVLQKAAGGGSGGGSGGGSGGGSGELKAIAQELKAIAKELKAIAWELKAIAQGAGGGGSGGGSGGGSGGGSDLGKKLLQAARAGQLDEVRELLKAGADVNAKDQEGITPLHVAAHQGHLEIVEVLLKAGADVNAKDVWGRTPLHLAAWRGHLEIVEVLLKAGADVNAKDHAGATPLHAAALSGHLEIVEVLLKAGADVNAQDKSGKTPADLAARAGHQDIAEVLQKAA
Consider B1, for which the Kd in assay [1] was determined as 0.00282 µM; in assay [2], 0.0244 µM.

B2: Bilayer HEX-D3-ASA (designed binder)
chain: DLGKKLLQAARAGQLDEVRELLKAGADVNAKDQEGITPLHVAAHQGHLEIVEVLLKAGADVNAKDVWGRTPLHLAAWRGHLEIVEVLLKAGADVNAKDHAGATPLHAAALSGHLEIVEVLLKAGADVNAQDKSGKTPADLAARAGHQDIAEVLQKAAGGGSGGGSGGGSGGGSDLGKKLLEAARAGQDDEVRELLKAGADVNAKDYFSHTPLHLAARNGHLKIVEVLLKAGADVNAKDFAGKTPLHLAANEGHLEIVEVLLKAGADVNAQDIFGKTPADIAADAGHEDIAEVLQKAAGGGSGGGSGGGSGGGSGELKAIAQELKAIAKELKAIAWELKAIAQGAGGGGSGGGSGGGSGGGSDLGKKLLQAARAGQLDEVRELLKAGADVNAKDQEGITPLHVAAHQGHLEIVEVLLKAGADVNAKDVWGRTPLHLAAWRGHLEIVEVLLKAGADVNAKDHAGATPLHAAALSGHLEIVEVLLKAGADVNAQDKSGKTPADLAARAGHQDIAEVLQKAAGGGSGGGSGGGSGGGSDLGKKLLQAARAGQLDEVRELLKAGADVNAKDQEGITPLHVAAHQGHLEIVEVLLKAGADVNAKDVWGRTPLHLAAWRGHLEIVEVLLKAGADVNAKDHAGATPLHAAALSGHLEIVEVLLKAGADVNAQDKSGKTPADLAARAGHQDIAEVLQKAA
Consider B2, for which the Kd was 0.0079 µM in assay [1] and 0.124 µM in assay [2].

One may read the Kd as the free concentration of one partner at which half of the binding sites on the other are occupied at equilibrium, for simple one-to-one binding. Low values mean a tighter complex, high ones a looser complex.
